Assay [1] concerns the target Bunyamwera virus Gn–Gc glycoprotein heterodimer (protomer of the membrane-bound glycoprotein spike) (Bunyamwera virus). As to the kind of experiment: cryo-EM structure; electron cryo-tomography and sub-tomogram averaging of about 2,000 spikes on purified BUNV virions vitrified at pH 7.4; 3.0 nm resolution; three-fold symmetry seen without imposing it; validated by single particle averaging of spike side views.

For assay [2], the target named is Bunyamwera virus Gc glycoprotein (Bunyamwera virus) (UniProt P04505). Described as above.

Here are results for two substances from paper PMC3656102.

For orientation: stoichiometry N means the number of molecules, sites or subunits per partner or assembly.

“Bunyamwera virus Gn–Gc glycoprotein heterodimer (protomer of the membrane-bound glycoprotein spike) (complex)” gave a stoichiometry N in assay [1] of 3.

As to “Bunyamwera virus Gc glycoprotein (from UniProt P04505 478-1433) (natural protein)”, in assay [2], the stoichiometry N was 3.
